# Source: patent US20190256597
# Test system: T1, cleavable peptide CP(AQ), Lys(AQ)SerGlyProLeuGlyValArgGlySerSerCys
# T1 sequence: KSGPLGVRGSSC
substance,measurement,value
"purified, recombinant MMP2 (BioLegend, #554304)",proteolytic cleavage followed by thin layer chromatography,"after the incubation of CP(AQ) with MMP2, the compound was able to shift organic solution, with a transformed behavior from hydrophilic to hydrophobic"
